The target of one assay is T1, Angiopoietin-2 (UniProt O15123 19-496).
T1 construct: recombinant Ang2; the residue numbers printed for Ang2 (Asp448, Phe469, Ser480) come from the cited structure 2GY7; also called Ang2; source: recombinant
T1 sequence (looked up): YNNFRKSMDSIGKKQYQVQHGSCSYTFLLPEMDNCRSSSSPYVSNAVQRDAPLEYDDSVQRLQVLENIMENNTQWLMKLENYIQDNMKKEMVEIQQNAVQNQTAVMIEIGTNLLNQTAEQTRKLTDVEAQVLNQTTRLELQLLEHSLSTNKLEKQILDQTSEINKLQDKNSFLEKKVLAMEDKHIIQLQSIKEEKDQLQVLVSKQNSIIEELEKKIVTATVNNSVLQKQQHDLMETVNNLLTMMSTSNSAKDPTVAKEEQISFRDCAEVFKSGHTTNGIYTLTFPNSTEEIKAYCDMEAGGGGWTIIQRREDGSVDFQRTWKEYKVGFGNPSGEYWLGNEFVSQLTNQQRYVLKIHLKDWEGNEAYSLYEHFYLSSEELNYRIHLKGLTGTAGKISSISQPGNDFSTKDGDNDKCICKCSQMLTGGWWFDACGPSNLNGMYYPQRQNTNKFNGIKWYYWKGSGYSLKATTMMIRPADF
In words: ELISA; recombinant Ang1 or Ang2 immobilised on Maxisorp plates, blocked with TBS, 0.1% Triton-X100, 5% milk powder; Tie2 ectodomain proteins bound for 1 h; detected with anti-Tie2 ectodomain antibodies; EC50 = concentration of ectodomain for 50% of maximal binding. As to conditions: both partners purified.

The target of a further assay is T2, Angiopoietin-1 (UniProt Q15389 16-498).
T2 construct: recombinant Ang1; the residue numbers printed for Ang1 (Gln415, Asp450, Leu471, Tyr478) come from the cited structure 4K0V; also called Ang1; source: recombinant
T2 sequence (looked up): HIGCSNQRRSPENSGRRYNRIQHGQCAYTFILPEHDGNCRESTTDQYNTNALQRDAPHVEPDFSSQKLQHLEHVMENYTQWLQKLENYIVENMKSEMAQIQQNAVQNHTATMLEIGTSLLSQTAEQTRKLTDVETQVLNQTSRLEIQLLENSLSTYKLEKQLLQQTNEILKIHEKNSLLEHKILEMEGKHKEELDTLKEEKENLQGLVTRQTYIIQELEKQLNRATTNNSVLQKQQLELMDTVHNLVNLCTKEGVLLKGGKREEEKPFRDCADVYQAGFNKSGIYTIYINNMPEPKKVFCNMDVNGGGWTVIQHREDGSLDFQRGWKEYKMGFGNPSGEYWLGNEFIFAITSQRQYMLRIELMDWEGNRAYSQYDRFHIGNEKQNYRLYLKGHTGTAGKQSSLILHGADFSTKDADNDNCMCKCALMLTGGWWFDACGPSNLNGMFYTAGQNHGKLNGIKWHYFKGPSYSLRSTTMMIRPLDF
The assay is described as above. As to conditions: both partners purified.

B1: R5 Tie2 ectodomain-Fc with Ser171 reverted back to Pro (Fc fusion, human, UniProt Q02763 23-442, looked up)
chain: AMDLILINSLPLVSDAETSLTCIASGWRPHEPITIGRDFEALMNQHQDPLEVTQDVTREWAKKVVWKREKASKINGAYFCEGRVRGEAIRIRTMKMRQQASFLPATLTMTVDKGDNVNISFKKVLIKEEDAVIYKNGSIIHLVPEVPDILEVHLPHAQPQDAGVYSARYIGGNLFTSAFTRLIVRRCEAQKWGPECNHLCTACMNNGVCHEDTGECICPPGFMGRTCEKACELHTFGRTCKERCSGQEGCKSYVFCLPDPYGCSCATGWKGLQCNEACHPGFYGPDCKLRCSCNNGEMCDRFQGCLCSPGWQGLQCEREGIQRMTPKIVDLPDHIEVNSGKFNPICKASGWPLPTNEEMTLVKPDGTVLHPKDFNHTDHFSVAIFTIHRILPPDSGVWVCSVNTVAGMVEKPFNISVK
notes: signal peptide in the construct; Tie2 ectodomain, human, residues 1-442; also called evolved ectodomain in which Ser171 was reverted back to Pro; source: Hek293, transfected, purified from culture medium (nickel chromatography); not shown: Fc (fragment of human Fc immunoglobulin domain, after a GS4 linker), C-terminal, kept
Turning to B1, the binding result with Angiopoietin-2 is recorded as “binds”.

B2: monomeric wild-type Tie2 ectodomain (domain or fragment, human, UniProt Q02763 23-748, looked up)
chain: AMDLILINSLPLVSDAETSLTCIASGWRPHEPITIGRDFEALMNQHQDPLEVTQDVTREWAKKVVWKREKASKINGAYFCEGRVRGEAIRIRTMKMRQQASFLPATLTMTVDKGDNVNISFKKVLIKEEDAVIYKNGSFIHSVPRHEVPDILEVHLPHAQPQDAGVYSARYIGGNLFTSAFTRLIVRRCEAQKWGPECNHLCTACMNNGVCHEDTGECICPPGFMGRTCEKACELHTFGRTCKERCSGQEGCKSYVFCLPDPYGCSCATGWKGLQCNEACHPGFYGPDCKLRCSCNNGEMCDRFQGCLCSPGWQGLQCEREGIQRMTPKIVDLPDHIEVNSGKFNPICKASGWPLPTNEEMTLVKPDGTVLHPKDFNHTDHFSVAIFTIHRILPPDSGVWVCSVNTVAGMVEKPFNISVKVLPKPLNAPNVIDTGHNFAVINISSEPYFGDGPIKSKKLLYKPVNHYEAWQHIQVTNEIVTLNYLEPRTEYELCVQLVRRGEGGEGHPGPVRRFTTASIGLPPPRGLNLLPKSQTTLNLTWQPIFPSSEDDFYVEVERRSVQKSDQQNIKVPGNLTSVLLNNLHPREQYVVRARVNTKAQGEWSEDLTAWTLSDILPPQPENIKISNITHSSAVISWTILDGYSISSITIRYKVQGKNEDQHVDVKIKNATITQYQLKGLEPETAYQVDIFAENNIGSSNPAFSHELVTLPESQAPADLGGGKMLL
notes: wild-type Tie2 ectodomain, monomeric form; also called Wt monomer; monomeric Tie2
A word on the EC50: it is the concentration giving half of the maximal effect. Consider B2, for which, in the assay with Angiopoietin-2, the EC50 worked out at 22.7 nM.

B3: Tie2 ectodomain-Fc Arg167Ala/His168Ala (Fc fusion, human, UniProt Q02763 23-442, looked up)
chain: AMDLILINSLPLVSDAETSLTCIASGWRPHEPITIGRDFEALMNQHQDPLEVTQDVTREWAKKVVWKREKASKINGAYFCEGRVRGEAIRIRTMKMRQQASFLPATLTMTVDKGDNVNISFKKVLIKEEDAVIYKNGSFIHSVPAAEVPDILEVHLPHAQPQDAGVYSARYIGGNLFTSAFTRLIVRRCEAQKWGPECNHLCTACMNNGVCHEDTGECICPPGFMGRTCEKACELHTFGRTCKERCSGQEGCKSYVFCLPDPYGCSCATGWKGLQCNEACHPGFYGPDCKLRCSCNNGEMCDRFQGCLCSPGWQGLQCEREGIQRMTPKIVDLPDHIEVNSGKFNPICKASGWPLPTNEEMTLVKPDGTVLHPKDFNHTDHFSVAIFTIHRILPPDSGVWVCSVNTVAGMVEKPFNISVK
notes: signal peptide in the construct; Tie2 ectodomain, human, residues 1-442; also called Arg167Ala/His168Ala Tie2 ectodomain mutant; double substitution; source: Hek293, transfected, purified from culture medium (nickel chromatography); not shown: Fc (fragment of human Fc immunoglobulin domain, after a GS4 linker), C-terminal, kept
Turning to B3, the binding result in the assay with Angiopoietin-2 and with Angiopoietin-1 was “binds” throughout.

For the origin of these results see publication PMC8294587, “Intrinsic differences in the mechanisms of Tie2 binding to angiopoietins exploited by directed evolution to create an Ang2-selective ligand trap” (The Journal of Biological Chemistry, 2021).
